According to a protein production outcome set (Wang et al. 2014):

Test: label from the status in PepcDB records

Sequence | protein production
MACHGFLGKPTPKSFGRHHKHARKNRNHQSRCLAAAVAAAGSIFTSLNMSIFTFHNRLLRCVSRFLRLATTSSATPTRRPTMKQGYKKLHKREPLIRRNDKKRTIFLDLDETLVHSTMEPPIRVNVDFMVRIKIEGAVIPMFVVKRPGVTEFLERISKNYRVAIFTAGLPEYASQVLDKLDKNRVISQRLYRDSCTEVNGRYAKDLSLVAKNDLGSVLLVDDNPFSYSLQPDNGVPIKPFMDDMEDQELMKLAEFFDGCYQYEDLRDAAAELLSSKLI | failed
MADAPDTERQAVEPEAGDVLSVSQLNDRIASVVEDAPALDGVRCIGEVTDLHQNSTALYFTLTDGDAELPCMIWANRYRKMDAELEDGTEVILEGDIDYWTEGGKIDLKPWEVIVVGDGDQAAAVERLRSELEERGWFDDEQKQRPPAFPERVGVVTSLRGDARYDIQSAIHEQDPTVDILVKDATVQGSEAPTSIANGIHHLDRSEDVDSIIVGRGGGSDSNLQAFNTERVAEAIFTANTPIVTAIGHTDDRLIADRVADMAAITPTAAGEYIAKSRNDFLASDIGPLEQQLEAAYETFEQEHEHEQELAEAVEEATAPEGLSPVYYKVAIVVLLVLLLLITALWLGVI | failed
MADAPIDIFQSILSRKSIRAFTDQPVTQETIREILKLAARAPSGTNLQPWQVIVLTGKILQKVGQELSQLVLSGIKGEREYHYYPRQWREPYLSRRRKVGLDLYKSLGIQKGDQEKMLHQKAKNFLFYGAPVGLLFTIDHDMEMGSWLDLGMFMQTIMLAARGFGLDTCAQAAFADYHKQIRSLLSVPSDRHIICGMALGYRDMNAPENNFETEREPIDNFVHFIKSYP | not failed
MADISLDELIRKRGAAAKGRLNARPGVGGVRSRVGIQQGLLSQSTRTATFQQRFDARQKIGLSDARLKLGVKDAREKLLQKDARFRIKGKVQDAREMLNSRKQQTTVPQKPRQVADAREKISLKRSSPAAFINPPIGTVTPALKLTKTIQNLYDLDEDDDGIASVPTKQMKFAASGGFLHHMAGLSSSKLSMSKALPLTKVVQNDAYTAPALPSSIRTKALPVLTSPGT | not failed
MADLPSISLITATYNAAQHLPGLIESVRQQSDRAFEWIVIDGASEDGTLDLIRGAQDVITDYVSEPDFGIFHALNKGIQRATGDYYLVVGADDRLDPLAIANYKQAAASSQADLISAYIYSEKKAIIKPTGGAIWHHGVQAFITTQSVGTLIKRNLHEHYGYYSHYYPTAADALFILKVQQGGGKITTAEFIAGQYNTKGFSYRYKANLLCELFLIQKEFFPKSIQLLLLIYRLIKNYRYLLEHHHHHH | failed
MADMSDAPLVVQSDRTILLEVDNPLYPEARDALARFAELVKSPEHIHTYRLTPLSLWNAAAGGLDAATIIQVLADYSKYPLPANVVADIREYVGRYGKVKLVARGTGLRLVTADPGIAAEISNNKRIQPYIKERQDACTLAIDPWQRGPVKQALIKIGYPVEDLAGYIPGAPLPFSLRERTLNGETFSLRPYQAEAARVFYAGGSSRGGSGVIVLPCGAGKTVVGIAAMALCQCYTLILVTSVTAARQWLAEIRDKTDLPPEMLGEYTGEKKEIKPVTVATYQIITHRRRRNEDYPNFQLFNQQDWGLIIYDEVHLLPAPIFRITAELQARRRLGLTATLIREDGHEDDVFSLIGPKKYDLPWKQLEAQGWIAKATCYEVRLNLPPEMRLDYASAGERDKYRIAATNPVKEAVVENIIKRHEGEQVLVIGQYLEQLERLARRLGVPMITGQTSNRERERLYQAFREGTLKCLVVSKVANFAIDLPEASVAVQVSGAFGSRQEEAQRLGRILRPKKGGLPASFYTLVTRETVEQEFAVHRQLFLTEQGYRYVIIGPDLEQEGDKVYPLKTPTGSEPAVGAVIKQENLDGKVIDLMAWRQKAGR | failed
MADNYVIWFENLRMTDVERVGGKNASLGEMISQLTEKGVRVPGGFATTAEAYRAFLAHNGLSERISAALAKLDVEDVAELARVGKEIRQWILDTPFPEQLDAEIEAAWNKMVADAGGADISVAVRSSATAEDLPDASFAGQQETFLNINGLDNVKEAMHHVFASLYNDRAISYRVHKGFEHDIVALSAGVQRMVRSDSGASGVMFTLDTESGYDQVVFVTSSYGLGENVVQGAVNPDEFYVFKPTLKAGKPAILRKTMGSKHIKMIFTDKAEAGKSVTNVDVPEEDRNRFSITDEEITELAHYALTIEKHYGRPMDIEWGRDGLDGKLYILQARPETVKSQEEGNRNLRRFAINGDKTVLCEGRAIGQKVGQGKVRLIKDASEMDSVEAGDVLVTDMTDPDWEPV | not failed
